Results reported in the supplement of paper PMC10126150.
± gives the standard deviation of the averaged measurements.

Tested on: ATP
Test: switch fluorescence ratio, 500 uM ATP over buffer (Cy3 cluster intensity, sum of 5 cycles each) (fold (ratio)); higher = stronger signal-on switching upon ATP binding; sequences stand for … in TCGTCGGCAGCGTCAGATGTGTATAAGAGACAGTTTTTTTTTTTTTTTTTTTTTTTTT…TC
Conditions: aptamer strand: ATP DNA aptamer (quencher-CACCTGGGGGAGTATTGCGGAGGAAGG + anchor), 100 nM annealed; ATP concentration: 500 uM
Summary of the method: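 Cy3-labelled switching-strand clusters on a modified Illumina MiSeq flow-cell were annealed to 100 nM quencher-labelled ATP aptamer, imaged in selection buffer, then imaged after 15 min with 500 uM ATP at 22 °C. Five buffer/ATP cycles ran, with NaOH stripping and re-annealing between them. The fluorescence ratio is summed target-cycle over summed buffer-cycle Cy3 intensity per cluster, averaged per switch-domain sequence. Clusters outside 100-1000 RFU were excluded.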
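Further: ATP exposure 15 min at 22 °C before imaging.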

Sequence | switch fluorescence ratio
TATCGGCAGC | 1.07 ± 0.043
AGGCGTATTT | 0.9987 ± 0.0062
TTTTGTATTG | 0.98 ± 0.024
GAAGGGAAAG | 1.02 ± 0.012
GGGTCTAGGA | 1.006 ± 0.0052
GACAGGGATG | 1.02 ± 0.039
CGATTAAGGC | 1.003 ± 0.0026
GATGAGGAAG | 1.01 ± 0.06
TGCTAAATTG | 1.015 ± 0.0015
AAGCAGTCA | 1.01 ± 0.038
TGGGGTAGGC | 1.02 ± 0.034
GTAATGGGGG | 1.09 ± 0.071
CGATATAGGA | 0.992 ± 0.011
GTTCAATTGG | 0.98 ± 0.021
TTATAGATAG | 0.999 ± 0.018
AGACGAAAGT | 0.998 ± 0.054
CCCGAATCCT | 1.06 ± 0.034
TACGATACAC | 1.44 ± 0.075
TAGTAATCTT | 1.003 ± 0.0092
AAAAACGGCT | 0.99 ± 0.017
GTGGTAAGCG | 0.995 ± 0.065
GTTTGTAGGG | 0.988 ± 0.037
AGCGTATGTG | 1.02 ± 0.062
TACGAATCT | 1.03 ± 0.056
ACGTTGGTGG | 1 ± 0.012

Sequence | switch fluorescence ratio
TCAACCTTTT | 1.04 ± 0.052
GGTGCAATGA | 1.956 ± 0.0021
TTATGAGCGT | 1 ± 0.014
GGAATTAGGT | 0.9903 ± 0.0077
GCTAGGACGT | 0.997 ± 0.03
CGTTTGGGGT | 1.002 ± 0.0071
TTTAGGTTTT | 1.01 ± 0.021
ACCGGTTAGC | 1.02 ± 0.015
AATCGCTTTG | 1.014 ± 0.0029
ATAGGGGACG | 1.01 ± 0.049
AAAGTGCTCT | 0.981 ± 0.038
TAGTTTGGGG | 0.999 ± 0.032
GGTTACACTG | 1.03 ± 0.025
GGTGTGCGTC | 1 ± 0.026
AGTGGGATAA | 1.11 ± 0.099
TTCGGGAGGG | 0.973 ± 0.029
AGTTTGGGGT | 1.01 ± 0.029
ATTTTTAACT | 0.99578 ± 0.00077
GATTTTTGGG | 1.01 ± 0.047
GAGCCCTCGG | 0.999 ± 0.023
GGGCCCTTAC | 1.11 ± 0.06
ATCATGTGGG | 0.999 ± 0.018
TTTAAAGGCC | 0.9682 ± 0.00099
AGATGTTGAA | 0.979 ± 0.023
TTGCTCCTTT | 1.02 ± 0.03

Sequence | switch fluorescence ratio
GGCGGAAGAA | 1.07 ± 0.013
GAGTCTGGGA | 1.032 ± 0.0051
TGAATAGGGA | 0.982 ± 0.05
TTTATCTGAT | 0.965 ± 0.025
CATGCGAATA | 1.1 ± 0.033
ATTCTTAGTA | 0.986 ± 0.03
ATGGAAATTG | 0.954 ± 0.019
GTGGACATAT | 0.991 ± 0.015
TGGGGGGGAA | 0.999 ± 0.021
TTTAGCGTTT | 0.997 ± 0.051
TGGTAGGATG | 0.964 ± 0.05
ATTTAACGAG | 1.01 ± 0.021
TGGTGCACC | 0.983 ± 0.042
TATGATTGCG | 1.01 ± 0.04
GCGAAGGTCA | 1.01 ± 0.012
AAATTTCATA | 1.03 ± 0.01
ATCATGGGTA | 0.9757 ± 0.0069
GAAGATTTCT | 0.976 ± 0.03
TCGCCATGAT | 0.999 ± 0.02
TGGGGATATT | 0.9965 ± 0.0016
CGCGAAAGAA | 0.9682 ± 0.0033
TATTGCGTGG | 0.9836 ± 0.0073
GATGGATTAG | 0.982 ± 0.015
GTTAGGGGCG | 0.982 ± 0.013
CGACATTGCA | 1.09 ± 0.022

Sequence | switch fluorescence ratio
GGTTGAAGTT | 0.986 ± 0.0077
AAAGGCTGAA | 1.03 ± 0.048
AATTGTATAT | 0.985 ± 0.042
AATCCATGCG | 1.004 ± 0.0076
GGTAGGCCTG | 0.989 ± 0.056
ATATGGGTTT | 1.01 ± 0.033
TTATTGTTTA | 0.99 ± 0.029
GCGTCAACTC | 1.1 ± 0.016
AGTTTTTGGT | 0.97 ± 0.028
GATATTTGA | 0.99448 ± 0.00073
TTAGACGGTT | 1 ± 0.017
TTATCAACAC | 1.09 ± 0.13
TGAAAATTCG | 1.08 ± 0.11
GGTTTATTAA | 0.983 ± 0.011
GGAACTTGTT | 0.99 ± 0.012
TCCCCGACGT | 1.53 ± 0.22
GGGTGAGGTT | 0.997 ± 0.021
GATGTGGTAA | 1.01 ± 0.012
GGTTAGATGG | 0.978 ± 0.043
TAGTGGAAAA | 1.02 ± 0.077
AACGAGAGGG | 1.04 ± 0.035
CAAGTGACTT | 1.02 ± 0.016
TACGGAGGGA | 1.08 ± 0.029
ATAGGAACGT | 1.08 ± 0.1
TTGAATCGAC | 1.08 ± 0.042
